# Laboratory results taken from patent publication US20130303441A1 (YEDA RESEARCH AND DEVELOPMENT, published 2013).
# Square brackets hold non-standard residues; d marks the D form. Ends that are not written are not given here. pS = N[C@@H](COP(=O)(O)O)C(=O)O
# B1: L803F, Lys-Glu-Ala-Pro-Pro-Ala-Pro-Pro-Gln-phosphorylated Ser-Pro-Phe (peptide)
# peptide: KEAPPAPPQ[pS]PF
# Biological target: wild-type (WT) GSK-3β (human, UniProt P49841 1-420, limits assumed)
# Experiment: cell-based or functional assay
# wild-type (WT) GSK-3β, sequence (P49841 other isoform, or with tags, fused parts or gaps limits assumed): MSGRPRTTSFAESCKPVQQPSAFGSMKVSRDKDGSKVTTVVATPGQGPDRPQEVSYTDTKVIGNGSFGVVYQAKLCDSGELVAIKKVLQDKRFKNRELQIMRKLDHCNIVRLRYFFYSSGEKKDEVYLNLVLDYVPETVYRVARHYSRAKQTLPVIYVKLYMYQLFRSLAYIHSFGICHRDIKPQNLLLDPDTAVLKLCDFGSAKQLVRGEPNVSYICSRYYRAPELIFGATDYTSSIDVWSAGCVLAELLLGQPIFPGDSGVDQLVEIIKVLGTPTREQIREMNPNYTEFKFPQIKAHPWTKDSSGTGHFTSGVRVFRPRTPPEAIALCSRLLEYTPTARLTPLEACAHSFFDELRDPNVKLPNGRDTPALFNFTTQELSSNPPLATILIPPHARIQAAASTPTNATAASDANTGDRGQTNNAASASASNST
binder,measurement,value
B1,"IC50, in vitro kinase assay",~150 µM
same,in vitro kinase assays with GSK-3β in the presence of L803 or L803F (200 µM each); inhibition relative to L803,~50 % relatively to L803
